Measured values as given in article PMC9482650, “Quantitative fragmentomics allow affinity mapping of interactomes” (Nature Communications, 2022).

What was measured:
Experiment in all cases: holdup assay
Set-up in all cases: key: below the threshold = too weak to quantify, mostly under pKd 3.1 to 4
Conditions in all cases: plain residues with an end cap or a label only (N-terminal biotin on a linker: ado-ado)
ARHGEF12, Q9NZN5-2 = target: ARHGEF12, Q9NZN5-2
DLG1_2, Q12959 = target: DLG1_2, Q12959
Sequence of DLG1_2, Q12959 (Q12959 314-412): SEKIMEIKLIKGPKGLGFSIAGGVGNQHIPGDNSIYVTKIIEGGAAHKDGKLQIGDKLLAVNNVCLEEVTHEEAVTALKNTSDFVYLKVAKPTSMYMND

DLG3_1, Q92796 = target: T1, DLG3_1, Q92796
T1 sequence (Q92796 125-227, limits assumed, looked up): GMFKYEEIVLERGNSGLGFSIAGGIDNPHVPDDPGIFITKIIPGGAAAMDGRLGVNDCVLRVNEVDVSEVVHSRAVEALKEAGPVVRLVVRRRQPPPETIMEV

DLG3_3, Q92796 = target: T2, DLG3_3, Q92796
T2 sequence (Q92796 374-475, limits assumed, looked up): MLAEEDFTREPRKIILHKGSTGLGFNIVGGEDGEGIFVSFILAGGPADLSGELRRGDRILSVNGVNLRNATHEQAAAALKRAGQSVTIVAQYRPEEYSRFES

DLG5_1, Q8TDM6 = target: DLG5_1, Q8TDM6
Sequence of DLG5_1, Q8TDM6 (Q8TDM6 617-713): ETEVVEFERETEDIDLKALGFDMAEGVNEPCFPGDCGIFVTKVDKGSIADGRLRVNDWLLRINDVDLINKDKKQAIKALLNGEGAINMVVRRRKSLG

DVL3, Q92997 = target: T3, DVL3, Q92997
T3 sequence (Q92997 244-331, limits assumed, looked up): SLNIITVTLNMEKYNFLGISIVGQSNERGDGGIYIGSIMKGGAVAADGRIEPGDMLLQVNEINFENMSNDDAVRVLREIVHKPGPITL

FRMPD2_1, Q68DX3 = target: FRMPD2_1, Q68DX3
Sequence of FRMPD2_1, Q68DX3 (Q68DX3 770-861): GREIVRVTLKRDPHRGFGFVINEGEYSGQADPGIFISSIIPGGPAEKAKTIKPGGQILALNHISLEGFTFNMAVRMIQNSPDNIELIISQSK

GOPC, Q9HD26 = target: GOPC, Q9HD26
GORASP2, Q9H8Y8 = target: GORASP2, Q9H8Y8
GRASP, Q7Z6J2 = target: GRASP, Q7Z6J2
Sequence of GRASP, Q7Z6J2 (Q7Z6J2 96-193): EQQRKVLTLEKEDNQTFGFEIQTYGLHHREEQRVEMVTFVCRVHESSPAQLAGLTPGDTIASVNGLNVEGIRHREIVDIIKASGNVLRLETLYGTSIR

GRID2IP_1, A4D2P6 = target: GRID2IP_1, A4D2P6
Sequence of GRID2IP_1, A4D2P6 (A4D2P6 1-87): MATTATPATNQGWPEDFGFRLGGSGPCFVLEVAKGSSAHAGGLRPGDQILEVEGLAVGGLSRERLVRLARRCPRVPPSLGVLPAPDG

Inadl_1, Q8NI35 = target: Inadl_1, Q8NI35
Sequence of Inadl_1, Q8NI35 (Q8NI35 113-229): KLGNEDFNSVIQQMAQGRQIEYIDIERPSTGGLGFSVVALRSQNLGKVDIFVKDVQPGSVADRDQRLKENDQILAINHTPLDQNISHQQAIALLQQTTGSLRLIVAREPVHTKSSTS

Inadl_10, Q8NI35 = target: Inadl_10, Q8NI35
Sequence of Inadl_10, Q8NI35 (Q8NI35 1673-1763): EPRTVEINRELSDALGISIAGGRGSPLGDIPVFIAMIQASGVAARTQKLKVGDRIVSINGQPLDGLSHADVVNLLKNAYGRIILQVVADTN

Inadl_5, Q8NI35 = target: Inadl_5, Q8NI35
Sequence of Inadl_5, Q8NI35 (Q8NI35 673-780): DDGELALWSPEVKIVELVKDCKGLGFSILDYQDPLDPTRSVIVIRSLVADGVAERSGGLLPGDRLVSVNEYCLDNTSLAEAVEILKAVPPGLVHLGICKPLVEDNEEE

Inadl_9, Q8NI35 = target: Inadl_9, Q8NI35
Sequence of Inadl_9, Q8NI35 (Q8NI35 1530-1615): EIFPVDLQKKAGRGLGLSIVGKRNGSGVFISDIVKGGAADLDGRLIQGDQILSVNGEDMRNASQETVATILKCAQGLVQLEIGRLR

LIN7A, O14910 = target: T4, LIN7A, O14910
T4 sequence (O14910 103-200, limits assumed, looked up): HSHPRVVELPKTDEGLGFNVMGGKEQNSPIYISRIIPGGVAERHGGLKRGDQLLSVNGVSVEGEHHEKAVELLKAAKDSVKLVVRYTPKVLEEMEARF

LIN7B, Q9HAP6 = target: T5, LIN7B, Q9HAP6
T5 sequence (Q9HAP6 88-185, limits assumed, looked up): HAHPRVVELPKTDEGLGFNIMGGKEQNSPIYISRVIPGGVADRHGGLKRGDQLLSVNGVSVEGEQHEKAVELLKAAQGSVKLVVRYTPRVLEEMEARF

LNX1_1, Q8TBB1 = target: LNX1_1, Q8TBB1
Sequence of LNX1_1, Q8TBB1 (Q8TBB1 261-371): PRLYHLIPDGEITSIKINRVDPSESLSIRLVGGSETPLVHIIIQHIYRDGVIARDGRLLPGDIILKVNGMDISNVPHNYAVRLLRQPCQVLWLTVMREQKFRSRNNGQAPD

MAGI2_2, Q86UL8 = target: MAGI2_2, Q86UL8
Sequence of MAGI2_2, Q86UL8 (Q86UL8 410-522): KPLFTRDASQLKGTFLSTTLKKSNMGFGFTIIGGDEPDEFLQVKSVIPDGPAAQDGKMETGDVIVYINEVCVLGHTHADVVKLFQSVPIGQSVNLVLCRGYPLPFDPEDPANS

MAGI2_6, Q86UL8 = target: MAGI2_6, Q86UL8
Sequence of MAGI2_6, Q86UL8 (Q86UL8 1141-1229): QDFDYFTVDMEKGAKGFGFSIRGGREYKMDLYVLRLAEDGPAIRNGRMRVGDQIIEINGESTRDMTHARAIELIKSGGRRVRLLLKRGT

MAST2, Q6P0Q8 = target: MAST2, Q6P0Q8
Sequence of MAST2, Q6P0Q8 (Q6P0Q8 1099-1202): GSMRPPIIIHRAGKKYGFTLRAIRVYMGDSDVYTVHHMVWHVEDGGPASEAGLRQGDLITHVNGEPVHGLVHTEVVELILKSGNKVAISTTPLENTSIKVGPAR

MPDZ_12, O75970 = target: T6, MPDZ_12, O75970
T6 sequence (O75970 1857-1958, limits assumed, looked up): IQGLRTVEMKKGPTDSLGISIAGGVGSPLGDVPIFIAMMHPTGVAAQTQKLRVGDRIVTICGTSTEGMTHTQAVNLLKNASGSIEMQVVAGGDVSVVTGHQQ

NHERF2_2, Q15599 = target: NHERF2_2, Q15599
Sequence of NHERF2_2, Q15599 (Q15599 142-238): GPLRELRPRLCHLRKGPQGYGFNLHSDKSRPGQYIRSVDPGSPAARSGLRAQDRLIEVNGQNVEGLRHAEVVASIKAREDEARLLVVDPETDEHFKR

NHERF4_4, Q86UT5 = target: NHERF4_4, Q86UT5
Sequence of NHERF4_4, Q86UT5 (Q86UT5 464-550): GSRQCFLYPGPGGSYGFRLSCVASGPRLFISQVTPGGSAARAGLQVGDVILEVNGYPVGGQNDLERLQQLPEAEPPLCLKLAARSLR

PCLO, Q9Y6V0 = target: T7, PCLO, Q9Y6V0
T7 sequence (Q9Y6V0 4491-4600, limits assumed, looked up): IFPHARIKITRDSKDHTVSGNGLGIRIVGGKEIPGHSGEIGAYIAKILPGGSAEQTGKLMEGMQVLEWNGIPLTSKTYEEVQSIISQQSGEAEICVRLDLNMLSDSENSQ

PTPN13_1, Q12923 = target: T8, PTPN13_1, Q12923
T8 sequence (Q12923 1088-1188, limits assumed, looked up): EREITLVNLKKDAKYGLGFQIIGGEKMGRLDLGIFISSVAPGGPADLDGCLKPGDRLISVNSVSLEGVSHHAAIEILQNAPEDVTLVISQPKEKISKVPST

SHANK1, Q9Y566 = target: T9, SHANK1, Q9Y566
T9 sequence (Q9Y566 658-767, limits assumed, looked up): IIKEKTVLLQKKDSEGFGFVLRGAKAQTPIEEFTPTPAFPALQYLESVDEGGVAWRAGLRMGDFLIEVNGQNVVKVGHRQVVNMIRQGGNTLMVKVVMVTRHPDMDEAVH

TX1BP3, O14907 = target: T10, TX1BP3, O14907
T10 sequence (O14907 10-122, limits assumed, looked up): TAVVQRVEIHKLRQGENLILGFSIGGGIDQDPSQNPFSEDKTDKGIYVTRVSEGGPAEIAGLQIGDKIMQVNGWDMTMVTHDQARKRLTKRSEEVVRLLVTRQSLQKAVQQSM

Sequence of ARHGEF12, Q9NZN5-2 (Q9NZN5 other isoform, or with tags, fused parts or gaps): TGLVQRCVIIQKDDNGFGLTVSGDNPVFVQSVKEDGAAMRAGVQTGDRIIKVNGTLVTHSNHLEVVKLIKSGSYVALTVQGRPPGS

## HDDYFYHDEL [RCN2, Q14257]
ARHGEF12, Q9NZN5-2
  pKd: below the threshold
DLG1_2, Q12959
  pKd: below the threshold
DLG3_1, Q92796
  pKd: below the threshold
DLG3_3, Q92796
  pKd: below the threshold
DLG5_1, Q8TDM6
  pKd: below the threshold
DVL3, Q92997
  pKd: below the threshold
FRMPD2_1, Q68DX3
  pKd: below the threshold
GOPC, Q9HD26
  pKd: 3.59
GORASP2, Q9H8Y8
  pKd: below the threshold
GRASP, Q7Z6J2
  pKd: 5.01
GRID2IP_1, A4D2P6
  pKd: below the threshold
Inadl_1, Q8NI35
  pKd: below the threshold
Inadl_10, Q8NI35
  pKd: below the threshold
Inadl_5, Q8NI35
  pKd: below the threshold
Inadl_9, Q8NI35
  pKd: below the threshold
LIN7A, O14910
  pKd: below the threshold
LIN7B, Q9HAP6
  pKd: below the threshold
LNX1_1, Q8TBB1
  pKd: below the threshold
MAGI2_2, Q86UL8
  pKd: below the threshold
MAGI2_6, Q86UL8
  pKd: 3.9
MAST2, Q6P0Q8
  pKd: 4.85
MPDZ_12, O75970
  pKd: below the threshold
NHERF2_2, Q15599
  pKd: 4.11
NHERF4_4, Q86UT5
  pKd: below the threshold
PCLO, Q9Y6V0
  pKd: below the threshold
PTPN13_1, Q12923
  pKd: below the threshold
SHANK1, Q9Y566
  pKd: below the threshold
TX1BP3, O14907
  pKd: 3.9

## NTALVESEDL [PALLS, Q8WX93;Q8WX93-1]
ARHGEF12, Q9NZN5-2
  pKd: below the threshold
DLG1_2, Q12959
  pKd: below the threshold
DLG3_1, Q92796
  pKd: below the threshold
DLG3_3, Q92796
  pKd: below the threshold
DLG5_1, Q8TDM6
  pKd: below the threshold
DVL3, Q92997
  pKd: below the threshold
FRMPD2_1, Q68DX3
  pKd: below the threshold
GOPC, Q9HD26
  pKd: below the threshold
GORASP2, Q9H8Y8
  pKd: below the threshold
GRASP, Q7Z6J2
  pKd: below the threshold
GRID2IP_1, A4D2P6
  pKd: below the threshold
Inadl_1, Q8NI35
  pKd: below the threshold
Inadl_10, Q8NI35
  pKd: below the threshold
Inadl_5, Q8NI35
  pKd: below the threshold
Inadl_9, Q8NI35
  pKd: below the threshold
LIN7A, O14910
  pKd: below the threshold
LIN7B, Q9HAP6
  pKd: below the threshold
LNX1_1, Q8TBB1
  pKd: below the threshold
MAGI2_2, Q86UL8
  pKd: below the threshold
MAGI2_6, Q86UL8
  pKd: 4.01
MAST2, Q6P0Q8
  pKd: 5.15
MPDZ_12, O75970
  pKd: below the threshold
NHERF2_2, Q15599
  pKd: 4.64
NHERF4_4, Q86UT5
  pKd: below the threshold
PCLO, Q9Y6V0
  pKd: below the threshold
PTPN13_1, Q12923
  pKd: below the threshold
SHANK1, Q9Y566
  pKd: below the threshold
TX1BP3, O14907
  pKd: below the threshold

## KKTPVSRSHL [SLC22A3, O75751]
ARHGEF12, Q9NZN5-2
  pKd: 4.2
DLG1_2, Q12959
  pKd: 3.52
DLG3_1, Q92796
  pKd: below the threshold
DLG3_3, Q92796
  pKd: below the threshold
DLG5_1, Q8TDM6
  pKd: below the threshold
DVL3, Q92997
  pKd: below the threshold
FRMPD2_1, Q68DX3
  pKd: below the threshold
GOPC, Q9HD26
  pKd: 3.81
GORASP2, Q9H8Y8
  pKd: below the threshold
GRASP, Q7Z6J2
  pKd: 4.38
GRID2IP_1, A4D2P6
  pKd: below the threshold
Inadl_1, Q8NI35
  pKd: below the threshold
Inadl_10, Q8NI35
  pKd: below the threshold
Inadl_5, Q8NI35
  pKd: below the threshold
Inadl_9, Q8NI35
  pKd: below the threshold
LIN7A, O14910
  pKd: below the threshold
LIN7B, Q9HAP6
  pKd: below the threshold
LNX1_1, Q8TBB1
  pKd: below the threshold
MAGI2_2, Q86UL8
  pKd: below the threshold
MAGI2_6, Q86UL8
  pKd: below the threshold
MAST2, Q6P0Q8
  pKd: 4.69
MPDZ_12, O75970
  pKd: below the threshold
NHERF2_2, Q15599
  pKd: 3.92
NHERF4_4, Q86UT5
  pKd: below the threshold
PCLO, Q9Y6V0
  pKd: below the threshold
PTPN13_1, Q12923
  pKd: below the threshold
SHANK1, Q9Y566
  pKd: 4.54
TX1BP3, O14907
  pKd: 3.53

## LPPPESESKV [KCNJ9, Q92806]
ARHGEF12, Q9NZN5-2
  pKd: below the threshold
DLG1_2, Q12959
  pKd: 3.54
DLG3_1, Q92796
  pKd: below the threshold
DLG3_3, Q92796
  pKd: below the threshold
DLG5_1, Q8TDM6
  pKd: below the threshold
DVL3, Q92997
  pKd: below the threshold
FRMPD2_1, Q68DX3
  pKd: below the threshold
GOPC, Q9HD26
  pKd: below the threshold
GORASP2, Q9H8Y8
  pKd: below the threshold
GRASP, Q7Z6J2
  pKd: below the threshold
GRID2IP_1, A4D2P6
  pKd: below the threshold
Inadl_1, Q8NI35
  pKd: below the threshold
Inadl_10, Q8NI35
  pKd: below the threshold
Inadl_5, Q8NI35
  pKd: below the threshold
Inadl_9, Q8NI35
  pKd: below the threshold
LIN7A, O14910
  pKd: below the threshold
LIN7B, Q9HAP6
  pKd: 3.77
LNX1_1, Q8TBB1
  pKd: below the threshold
MAGI2_2, Q86UL8
  pKd: below the threshold
MAGI2_6, Q86UL8
  pKd: 3.48
MAST2, Q6P0Q8
  pKd: 4.9
MPDZ_12, O75970
  pKd: below the threshold
NHERF2_2, Q15599
  pKd: below the threshold
NHERF4_4, Q86UT5
  pKd: below the threshold
PCLO, Q9Y6V0
  pKd: below the threshold
PTPN13_1, Q12923
  pKd: below the threshold
SHANK1, Q9Y566
  pKd: below the threshold
TX1BP3, O14907
  pKd: below the threshold
